{"source": "paper PMC9402439", "key": {"[1]": {"molecular_target": "human CST (CTC1–STN1–TEN1) heterotrimer, recombinant, from HEK293T cells (human) (UniProt Q2NKJ3)", "sequence (Q2NKJ3 whole entry, chain 1 of 3)": "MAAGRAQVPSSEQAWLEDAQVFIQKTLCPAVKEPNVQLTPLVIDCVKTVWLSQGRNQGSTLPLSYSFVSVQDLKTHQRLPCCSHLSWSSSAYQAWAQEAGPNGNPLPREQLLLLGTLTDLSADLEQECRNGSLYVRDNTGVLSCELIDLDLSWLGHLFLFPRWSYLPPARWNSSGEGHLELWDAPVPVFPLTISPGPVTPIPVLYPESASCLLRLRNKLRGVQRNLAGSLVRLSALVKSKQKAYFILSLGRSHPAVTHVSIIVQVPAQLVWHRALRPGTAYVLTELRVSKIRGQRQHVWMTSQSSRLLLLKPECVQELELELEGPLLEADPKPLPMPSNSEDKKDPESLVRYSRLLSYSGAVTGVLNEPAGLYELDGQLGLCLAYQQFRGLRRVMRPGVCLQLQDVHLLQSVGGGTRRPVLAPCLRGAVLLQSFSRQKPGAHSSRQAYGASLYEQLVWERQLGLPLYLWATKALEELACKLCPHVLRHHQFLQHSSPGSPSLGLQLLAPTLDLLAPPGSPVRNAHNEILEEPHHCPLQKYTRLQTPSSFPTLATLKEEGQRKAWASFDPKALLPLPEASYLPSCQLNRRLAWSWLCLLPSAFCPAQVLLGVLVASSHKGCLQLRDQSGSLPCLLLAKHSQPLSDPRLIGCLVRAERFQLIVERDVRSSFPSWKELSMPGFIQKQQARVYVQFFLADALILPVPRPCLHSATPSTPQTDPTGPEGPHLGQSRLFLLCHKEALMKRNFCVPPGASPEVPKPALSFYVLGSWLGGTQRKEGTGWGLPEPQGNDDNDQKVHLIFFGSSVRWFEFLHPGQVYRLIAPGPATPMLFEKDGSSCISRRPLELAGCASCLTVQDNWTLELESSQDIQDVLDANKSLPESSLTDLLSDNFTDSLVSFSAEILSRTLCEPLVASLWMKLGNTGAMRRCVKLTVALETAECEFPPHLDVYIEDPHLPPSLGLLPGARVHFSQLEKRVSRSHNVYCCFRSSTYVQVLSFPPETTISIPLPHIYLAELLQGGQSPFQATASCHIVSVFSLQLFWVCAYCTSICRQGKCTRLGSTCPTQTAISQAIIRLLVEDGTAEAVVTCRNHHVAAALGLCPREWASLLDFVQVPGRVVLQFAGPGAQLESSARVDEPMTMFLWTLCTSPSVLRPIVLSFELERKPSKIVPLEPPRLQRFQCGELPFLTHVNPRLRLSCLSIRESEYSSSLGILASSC", "sequence (Q9H668 whole entry, chain 2 of 3, further chain)": "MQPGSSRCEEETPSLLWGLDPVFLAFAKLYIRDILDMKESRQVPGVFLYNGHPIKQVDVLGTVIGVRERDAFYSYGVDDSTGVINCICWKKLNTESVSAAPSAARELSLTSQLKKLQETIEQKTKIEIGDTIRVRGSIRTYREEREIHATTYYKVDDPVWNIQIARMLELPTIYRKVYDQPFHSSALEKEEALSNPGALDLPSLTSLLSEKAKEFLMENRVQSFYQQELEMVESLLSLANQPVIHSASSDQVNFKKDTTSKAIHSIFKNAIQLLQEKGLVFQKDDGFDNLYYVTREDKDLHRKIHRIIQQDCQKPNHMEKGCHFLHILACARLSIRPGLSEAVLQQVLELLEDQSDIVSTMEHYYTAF", "sequence (Q86WV5 whole entry, chain 3 of 3, further chain)": "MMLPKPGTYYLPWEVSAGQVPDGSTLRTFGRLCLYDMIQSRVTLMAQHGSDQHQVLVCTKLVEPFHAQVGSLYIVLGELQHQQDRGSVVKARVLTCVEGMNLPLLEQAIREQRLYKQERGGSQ"}, "[2]": {"molecular_target": "human CST (CTC1–STN1–TEN1) heterotrimer, recombinant, from HEK293T cells (human) (UniProt Q2NKJ3)", "test": "co-IP; successive anti-FLAG and anti-HA immunopurifications of 3×FLAG-CTC1, Myc-STN1 and HA-TEN1 from transfected HEK293T cells, 150 mM NaCl in the wash and elution buffers; subunits found by western blot and quantified against insect-cell standards"}}, "data": [{"substance": "Polα–primase (DNA polymerase α-primase), endogenous human enzyme, four subunits (from UniProt P09884 1-1462; Q14181 1-598) (complex)", "values": [{"measurement": "C-strand synthesis activity of CST–Polα–primase from HEK cells relative to recombinant human Polα–primase from insect cells, high concentrations of enzyme and template DNA (5 µM, 15×TEL)", "setting": "[1]", "value": "> 10", "unit": "fold"}, {"measurement": "C-strand synthesis activity of CST–Polα–primase from HEK cells relative to recombinant human Polα–primase from insect cells, standard reaction conditions (100 nM template)", "setting": "[1]", "value": "> 10000", "unit": "fold"}, {"measurement": "stoichiometry in the purified preparation (POLA per CST)", "setting": "[2]", "value": 0.21, "unit": "POLA per CST"}]}]}
